Source: patent publication US6994968

Target: human Slo1 (human), Q12791
Assay: cell-based or functional assay

human Slo1 (human), Q12791, sequence (Q12791 whole entry): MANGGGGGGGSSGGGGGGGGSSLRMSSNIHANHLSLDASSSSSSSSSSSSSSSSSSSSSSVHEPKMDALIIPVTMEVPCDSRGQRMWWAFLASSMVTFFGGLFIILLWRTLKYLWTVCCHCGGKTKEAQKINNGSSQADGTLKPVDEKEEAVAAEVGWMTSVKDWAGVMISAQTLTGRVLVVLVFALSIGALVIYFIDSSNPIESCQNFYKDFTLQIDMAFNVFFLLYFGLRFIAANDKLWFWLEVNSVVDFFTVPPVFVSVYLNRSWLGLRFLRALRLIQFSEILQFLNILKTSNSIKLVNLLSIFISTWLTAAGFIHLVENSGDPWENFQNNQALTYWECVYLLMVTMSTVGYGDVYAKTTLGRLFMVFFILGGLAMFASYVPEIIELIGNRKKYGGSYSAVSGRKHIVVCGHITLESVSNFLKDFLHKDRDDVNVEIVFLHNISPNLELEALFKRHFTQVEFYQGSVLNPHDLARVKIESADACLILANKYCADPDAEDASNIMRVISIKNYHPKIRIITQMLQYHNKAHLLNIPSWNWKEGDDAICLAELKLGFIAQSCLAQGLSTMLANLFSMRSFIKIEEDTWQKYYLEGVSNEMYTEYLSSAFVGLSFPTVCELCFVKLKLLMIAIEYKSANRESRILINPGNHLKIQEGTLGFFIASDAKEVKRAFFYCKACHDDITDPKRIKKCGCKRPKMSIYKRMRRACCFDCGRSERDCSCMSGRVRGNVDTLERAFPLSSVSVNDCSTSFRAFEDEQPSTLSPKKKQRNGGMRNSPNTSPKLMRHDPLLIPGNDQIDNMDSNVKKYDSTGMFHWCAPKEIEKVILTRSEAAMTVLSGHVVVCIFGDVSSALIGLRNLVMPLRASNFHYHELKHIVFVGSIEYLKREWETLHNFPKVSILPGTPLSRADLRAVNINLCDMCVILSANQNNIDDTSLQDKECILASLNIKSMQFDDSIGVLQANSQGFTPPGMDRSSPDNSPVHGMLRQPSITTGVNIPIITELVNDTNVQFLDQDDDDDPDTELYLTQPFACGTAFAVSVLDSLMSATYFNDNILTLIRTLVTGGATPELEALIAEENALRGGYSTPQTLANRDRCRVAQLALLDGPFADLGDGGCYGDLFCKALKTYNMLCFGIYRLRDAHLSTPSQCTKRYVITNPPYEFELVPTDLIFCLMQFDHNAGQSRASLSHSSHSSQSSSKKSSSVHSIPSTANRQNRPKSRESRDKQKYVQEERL

B1: human BK beta 3, Q86W47 1-210 (protein)
chain: MAKLRVAYEYTEAEDKSIRLGLFLIISGVVSLFIFGFCWLSPALQDLQATEANCTVLSVQQIGEVFECTFTCGADCRGTSQYPCVQVYVNNSESNSRALLHSDEHQLLTNPKCSYIPPCKRENQKNLESVMNWQQYWKDEIGSQPFTCYFNQHQRPDDVLLHRTHDEIVLLHCFLWPLVTFVVGVLIVVLTICAKSLAVKAEAMKKRKFS
Binder B1 has a leftward shift in the Slo-1 activation curve (V1/2act) in the presence of 50 µM free Ca2+ of 15 mV.
